One block for each substance: values may come before it.
Tests used:
[1] = molecular target: biotin-labeled recombinant FRa protein (R&D Systems, Inc) (UniProt P15328); assay: flow cytometry; transduced primary human T cells stained with biotin-labeled recombinant FRA protein, then SA-PE; plotted against CD8
[2] = molecular target: Folate receptor alpha on cells (SKOV3, A1847, T47D, 293T, IOSE6) (human) (UniProt P15328); assay: cell-based or functional assay
[3] = molecular target: Recombinant mesothelin-extracellular domain protein on beads (UniProt Q13421); assay: cell-based or functional assay
Sequence of Recombinant mesothelin-extracellular domain protein on beads (Q13421 other isoform, or with tags, fused parts or gaps limits assumed): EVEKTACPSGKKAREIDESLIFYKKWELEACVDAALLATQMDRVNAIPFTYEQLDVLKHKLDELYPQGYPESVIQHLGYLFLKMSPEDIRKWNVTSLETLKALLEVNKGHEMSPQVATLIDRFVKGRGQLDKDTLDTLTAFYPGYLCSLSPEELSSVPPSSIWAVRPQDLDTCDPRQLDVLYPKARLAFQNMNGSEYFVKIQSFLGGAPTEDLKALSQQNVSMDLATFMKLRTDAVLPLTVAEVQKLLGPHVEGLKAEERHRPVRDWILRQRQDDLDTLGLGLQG

CD19-BBZ CAR on T cells = assay: flow cytometry; T cells one day after CD19-BBZ CAR mRNA electroporation, stained with anti-mouse IgG Fab antibody

Sequence of biotin-labeled recombinant FRa protein (R&D Systems, Inc) (P15328 25-233 limits assumed): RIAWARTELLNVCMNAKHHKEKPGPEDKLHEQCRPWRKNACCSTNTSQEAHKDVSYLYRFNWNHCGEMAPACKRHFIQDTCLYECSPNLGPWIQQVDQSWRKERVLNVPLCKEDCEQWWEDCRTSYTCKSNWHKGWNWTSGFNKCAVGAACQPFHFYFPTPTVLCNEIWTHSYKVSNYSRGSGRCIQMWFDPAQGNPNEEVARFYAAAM
Sequence of Folate receptor alpha on cells (SKOV3, A1847, T47D, 293T, IOSE6) (human) (P15328 25-234, stated change not applied): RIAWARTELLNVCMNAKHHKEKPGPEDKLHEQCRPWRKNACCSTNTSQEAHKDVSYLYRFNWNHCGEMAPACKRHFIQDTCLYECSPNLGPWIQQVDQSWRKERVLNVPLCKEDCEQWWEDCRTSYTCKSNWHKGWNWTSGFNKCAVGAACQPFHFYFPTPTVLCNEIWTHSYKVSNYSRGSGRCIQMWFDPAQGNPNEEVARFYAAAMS

percent of cells CD8+ and FRA CAR+ (upper right quadrant) [1]: 41.2% | percent of cells CD8- and FRA CAR+ (lower right quadrant) [1]: 31.3% | surface CAR expression after exposure to SKOV3 cells [2]: 1 % of T cells
Substance: MOv19-27z CAR on human T cells

% IFN-γ cytokine-producing cells after 6 hours with coated beads (flow cytometry) [3]: 7%
Substance: anti-mesothelin CAR (mesoCAR, SS1 BBZ) on wild-type mouse T cells

percent of cells in the CAR-positive gate (CD19-BBZ CAR on T cells): 98.5
Substance: anti-mouse IgG Fab antibody (detection reagent for the 19BBZ panel)
